# Experimental data taken from patent US20140178394A1 (INSERM INSTITUT NATIONAL DE LA SANTE ET DE LA RECHERCHE …, published 2014).
# Key:
# [1] = target: T1, HLA-A*0201 HLA class I MHC monomer (iTopia Epitope Discovery System, coated on plate) (human); assay: iTopia EDS off-rate assay
# T1 construct: Placeholder peptide stripped; also called HLA-A2; MHC class I monomer
# Description: (§1) This assay evaluates the dissociation rate of “binder” peptides as a function of time.
# The relative stability of each complex was evaluated for a period of 8 h as described in material and methods. Off-rate stability was determined by measuring the dissociation time of the complex (t1/2).
# [2] = target: T1, HLA-A*0201 HLA class I MHC monomer …; assay: iTopia EDS affinity assay; peptide titration (ED50)
# [3] = target: T2, HLA-A*0201 on the CEM.T2 cell line (T2) (human); assay: T2 cell dissociation assay with Brefeldin A, flow cytometry
# T2 construct: whole, on cells
# Description: (§2) After 3 washes, cells were fixed in PBS supplemented with 2% paraformaldehyde and analyzed by FACS (FACScan, BD Bioscience). The percentage of peptide binding was calculated as follows:
# (§3) After 3 washes, T2 cells were incubated for 3 h in serum-free RPMI at 37° C. Binding was then measured by FACS and after 4 h incubation. Percentage of Residual Binding (% RB) was calculated as follows:
# [4] = target: T1, HLA-A*0201 HLA class I MHC monomer …; assay: overall rank from iTopia EDS and CEM T2 assays on HLA-A*0201
# [5] = target: T1, HLA-A*0201 HLA class I MHC monomer …; assay: iTopia EDS multiparametric score (binding, off-rate, affinity)
# Excerpt: (§4) Microtiter 96 well plates containing HLA class I MHC monomer loaded with the human β2-microglobulin and a “placeholder” peptide were used to evaluate peptide binding, affinity, and off-rate.
# The iTopia system software was used to include, binding, off-rate (T1/2 value) and affinity (ED50 value) data collected for each peptide, in a multiparametric score called iScore.
# [6] = target: T1, HLA-A*0201 HLA class I MHC monomer …; assay: iTopia EDS off-rate assay at 37 C; time to 50% complex dissociation
# Excerpt: as §4, §1
# [7] = target: T1, HLA-A*0201 HLA class I MHC monomer …; assay: iTopia EDS affinity assay; peptide titration, printed as Affinity (ED50)
# [8] = target: T1, HLA-A*0201 HLA class I MHC monomer …; assay: iTopia EDS peptide binding assay on plate-coated MHC monomer; % of positive control peptide
# [9] = target: T2, HLA-A*0201 on the CEM.T2 cell line (T2); assay: T2 cell HLA-A*0201 stabilization, 100 µM peptide, flow cytometry; % of HBV positive control
# Description: as §2
# [10] = target: T2, HLA-A*0201 on the CEM.T2 cell line (T2); assay: T2 cell HLA-A*0201 stabilization and dissociation, flow cytometry
# Description: as §2, §3
Binder,t1/2 [1],EC50 [2],CEM.T2 % Residual Binding [3],RANK F-Score [4],iScore [5],T½ Value [6],EC50 [7],% Binding [8],CEM.T2 % Binding [9],binding score [10]
LLASFTGRC (Synthetic nonapeptide of human nectin4; the range counts on nectin4; also called Pep N° 21) [Nectin4 peptide 21 (LLASFTGRC)],> 6 h,~100 nM,86%,11,0.727,6 h,600 nM,91%,44%,–
"YMDGTMSQV (Control peptide from the literature, tested here; also called tyrosinase peptide) [reference peptide 519 (Tyrosinase), YMDGTMSQV]",–,–,–,3,–,–,–,–,–,–
"KVAELVHFL (Control peptide from the literature, tested here) [reference peptide 515 (MAGE-A3), KVAELVHFL]",–,–,–,10,–,–,–,–,–,–
SASVVVVGV (Synthetic nonapeptide of human nectin4; the range counts on nectin4) [Nectin4 peptide 347 (SASVVVVGV)],–,–,0%,–,0.708,3.7 h,200 nM,64%,40%,–
DQNLWHIGR (Synthetic nonapeptide of human nectin4; the range counts on nectin4) [Nectin4 peptide 255 (DQNLWHIGR)],–,–,0%,–,0.539,5.4 h,500 nM,62%,6%,–
AALLFCLLV (Synthetic nonapeptide of human nectin4; the range counts on nectin4) [Nectin4 peptide 357 (AALLFCLLV)],–,–,18%,–,0.619,3.8 h,100 nM,56%,15%,–
GTSDVVTVV (Synthetic nonapeptide of human nectin4; the range counts on nectin4) [Nectin4 peptide 35 (GTSDVVTVV)],–,–,0%,–,0.539,2.9 h,300 nM,63%,60%,–
VVVGVIAAL (Synthetic nonapeptide of human nectin4; the range counts on nectin4) [Nectin4 peptide 351 (VVVGVIAAL)],–,–,50%,5,0.784,3.4 h,30 nM,58%,82%,> 50 % of positive control
LLFCLLVVV (Synthetic nonapeptide of human nectin4; the range counts on nectin4) [Nectin4 peptide 359 (LLFCLLVVV)],–,–,23%,–,0.674,7.4 h,500 nM,67%,7%,–
VIAALLFCL (Synthetic nonapeptide of human nectin4; the range counts on nectin4) [Nectin4 peptide 355 (VIAALLFCL)],–,–,24%,–,0.888,5.2 h,30 nM,59%,18%,–
VLVPPLPSL (Synthetic nonapeptide of human nectin4; the range counts on nectin4) [antigen peptide N4-145 (VLVPPLPSL)],> 6 h,~100 nM,54%,6,0.783,7.4 h,500 nM,67%,76%,> 50 % of positive control
LLLLASFTG (Synthetic nonapeptide of human nectin4; the range counts on nectin4) [Nectin4 peptide 19 (LLLLASFTG)],–,–,0%,–,0.659,2.1 h,60 nM,75%,17%,–
ILHVSFLAE (Synthetic nonapeptide of human nectin4; the range counts on nectin4) [Nectin4 peptide 239 (ILHVSFLAE)],–,–,0%,–,0.51,2.3 h,200 nM,61%,10%,–
AVTSEFHLV (Synthetic nonapeptide of human nectin4; the range counts on nectin4) [Nectin4 peptide 203 (AVTSEFHLV)],–,–,0%,–,0.533,3.5 h,400 nM,64%,48%,–
FLAEASVRG (Synthetic nonapeptide of human nectin4; the range counts on nectin4) [Nectin4 peptide 244 (FLAEASVRG)],–,–,0%,–,0.533,2.8 h,700 nM,78%,12%,–
"VLPDVFIRC (Control peptide from the literature, tested here; also called GnTV peptide) [reference peptide 520 (GnTV), VLPDVFIRC]",–,–,–,1,–,–,–,–,–,–
AMLKCLSEG (Synthetic nonapeptide of human nectin4; the range counts on nectin4) [Nectin4 peptide 266 (AMLKCLSEG)],–,–,39%,–,0.667,6.8 h,700 nM,74%,31%,–
ALLHSKYGL (Synthetic nonapeptide of human nectin4; the range counts on nectin4; also called Pep N° 80) [Nectin4 peptide 80 (ALLHSKYGL)],> 6 h,~100 nM,86%,4,0.815,7.8 h,1000 nM,87%,53%,> 50 % of positive control
FQARLRLRV (Synthetic nonapeptide of human nectin4; the range counts on nectin4) [Nectin4 peptide 137 (FQARLRLRV)],–,–,72%,–,0.66,7.3 h,–,69%,30%,–
SMNGQPLTC (Synthetic nonapeptide of human nectin4; the range counts on nectin4) [Nectin4 peptide 215 (SMNGQPLTC)],–,–,0%,–,0.689,6.8 h,700 nM,81%,21%,–
ALLFCLLVV (Synthetic nonapeptide of human nectin4; the range counts on nectin4) [Nectin4 peptide 358 (ALLFCLLVV)],–,–,26%,–,0.71,6.1 h,200 nM,53%,26%,–
LVSASVVVV (Synthetic nonapeptide of human nectin4; the range counts on nectin4) [Nectin4 peptide 345 (LVSASVVVV)],–,–,0%,–,0.626,2.3 h,60 nM,51%,11%,–
"NLSASVATV (Control peptide from the literature, tested here) [reference peptide 503 (PR3; Proteinase3), NLSASVATV]",–,–,–,9,–,–,–,–,–,–
HILHVSFLA (Synthetic nonapeptide of human nectin4; the number is the start position in nectin4 (the range counts on nectin4)) [Nectin4 peptide 238 (HILHVSFLA)],–,–,66%,7,1.43,6.7 h,60 nM,87%,37%,–
GVIAALLFC (Synthetic nonapeptide of human nectin4; the range counts on nectin4) [Nectin4 peptide 354 (GVIAALLFC)],–,–,0%,–,0.845,6.2 h,90 nM,61%,10%,–
"GLYDGMEHL (Control peptide from the literature, tested here) [reference peptide 517 (MAGE-A10), GLYDGMEHL]",–,–,–,8,–,–,–,–,–,–
RSYSTLTTV (Synthetic nonapeptide of human nectin4; the range counts on nectin4) [Nectin4 peptide 443 (RSYSTLTTV)],–,–,0%,–,0.521,2.4 h,300 nM,68%,37%,–
